Source: patent US20210238271A1 (Janssen / Centocor, published 2021)

Tests used:
[1] = biological target: T1, recombinant human TNFα (human, UniProt P01375 77-233, 125I label in the receptor-blocking assay only); assay: competition: 125I-TNFα (5 ng/ml) preincubated with hybridoma supernatant, then bound to plate-coated p55-sf2, gamma counting; blocked partner p55-sf2
T1 construct: also called huTNFα; tumor necrosis factor alpha
Method: Varying amounts of hybridoma cell supernatants containing known amounts of TNV mAb were preincubated with a fixed concentration (5 ng/ml) of ¹²⁵I-labeled TNFα. […] Although eight TNV mAb samples were tested in these experiments, for simplicity three of the mAbs that were shown by DNA sequence analyses to be identical to one of the other TNV mAbs (see Section 5.2.2) are not shown here. Each sample was tested in duplicate. The results shown are representative of two independent experiments.
(§1) Assay for Inhibition of TNF Binding to Receptor. […] Serial dilutions of the eight TNV cell supernatants were prepared in 96-well round-bottom plates using PBS/0.1% BSA as diluent. […] The mixture was preincubated for one hour at RT. […] After 2 hrs at RT, Optiplates were washed three times with PBS-Tween. […] of Microscint-20 was added and the cpm bound determined using the TopCount gamma counter.
A simple binding assay was done to determine whether the eight TNV mAbs contained in hybridoma cell supernatant were capable of blocking TNFα binding to receptor.

[2] = biological target: T1, recombinant human TNFα; assay: inhibition of 125I-TNFα binding to plate-coated p55-sf2, hybridoma supernatants
Method: as §1
A simple binding assay was done to determine whether the eight TNV mAbs contained in hybridoma cell supernatant were capable of blocking TNFα binding to receptor. The concentrations of the TNV mAbs in their respective cell supernatants were first determined by standard ELISA analysis for human IgG.

[3] = biological target: T1, recombinant human TNFα; assay: cell-based or functional assay
[4] = biological target: T2, human lymphotoxin (human, UniProt P01374 35-205, limits assumed); assay: not described
T2 sequence (looked up): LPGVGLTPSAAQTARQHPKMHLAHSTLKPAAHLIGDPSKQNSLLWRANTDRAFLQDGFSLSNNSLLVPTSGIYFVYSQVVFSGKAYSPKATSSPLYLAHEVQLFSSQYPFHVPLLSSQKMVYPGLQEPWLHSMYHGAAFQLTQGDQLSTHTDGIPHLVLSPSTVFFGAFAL

Binder | IC50 (read off the curve) [1] | fold better at blocking TNF binding than TNV118 and TNV14 [2] | neutralizing TNFα bioactivity [3] | binding result [4]
GenTNV148.26.12 (antibody, human IgG1, kappa, V domains shown, Totally human IgG1 kappa from hybridoma, tested as hybridoma supernatant; also called C420A) VH: QVQLVESGGGVVQPGRSLRLSCAASGFIFSSYAMHWVRQAPGNGLEWVAFMSYDGSNKKYADSVKGRFTISRDNPKNTLYLQMNSLRAEDTAVYYCARDRGIAAGGNYYYYGMDVWGQGTTVTVSS VL: EIVLTQSPATLSLSPGERATLSCRASQSVYSYLAWYQQKPGQAPRLLIYDASNRATGIPARFSGSGSGTDFTLTISSLEPEDFAVYYCQQRSNWPPFTFGPGTKVDIKR | ~4 ng/mL | ~4 fold | 4 fold | –
GenTNV86.14.34 (antibody, human IgG1, kappa, V domains shown, Totally human IgG1 kappa from hybridoma, tested as hybridoma supernatant; Only the variable regions were compared; also called C417A) VH: QVQLVESGGGVVQPGRSLRLSCAASGFIFSSYAMHWVRQAPGNGLEWVAFMSYDGSNKKYADSVKGRFTISRDNPKNTLYLQMNSLRAEDTAVYYCARDRGIAAGGNYYYYGMDVWGQGTTVTVSS VL: EIVLTQSPATLSLSPGERATLSCRASQSVYSYLAWYQQKPGQAPRLLIYDASNRATGIPARFSGSGSGTDFTLTISSLEPEDFAVYYCQQRSNWPPFTFGPGTKVDIKR | – | ~4 fold | – | –
golimumab (antibody, human IgG1, kappa, V domains shown, Fully human IgG1 (G1m[z] allotype), kappa; also called SIMPONI) VH: QVQLVESGGGVVQPGRSLRLSCAASGFIFSSYAMHWVRQAPGNGLEWVAFMSYDGSNKKYADSVKGRFTISRDNSKNTLYLQMNSLRAEDTAVYYCARDRGIAAGGNYYYYGMDVWGQGTTVTVSS VL: EIVLTQSPATLSLSPGERATLSCRASQSVYSYLAWYQQKPGQAPRLLIYDASNRATGIPARFSGSGSGTDFTLTISSLEPEDFAVYYCQQRSNWPPFTFGPGTKVDIKR | – | – | – | no binding
